Results as given in patent US20250288684A1, “ACETAL-TYPE RELEASABLE POLYOXYETHYLENE DERIVATIVE, PRODUCTION METHOD THEREOF AND ACETAL-TYPE RELEASABLE POLYOXYETHYLENE CONJUGATE” (NOF CORPORATION, priority 2022, published 2025).

Key:
[1] = Evaluation of stability of PEGylated insulin in buffer solutions with various pH values (HPLC); format: physicochemical; conditions: pH 6.0, 7.0, 8.0 and 9.0 buffer solutions, 25° C.
Experimental: With 100 μL of 100 mM phosphate buffer solution (pH 6.0), 100 μL of 100 mM phosphate buffer solution (pH 7.0), 100 μL of 100 mM ammonium formate buffer solution (pH 8.0), or 100 μL of 100 mM ammonium formate buffer solution (pH 9.0), 100 μL of 0.5 mg/mL PEG(20k)-OCO-NH-insulin prepared in Comparative Example 4 or 100 μL of 0.5 mg/mL 2MPEG(20k)-OCO-NH-insulin prepared in Example 26 was mixed, and then allowed to stand at 25° C. and subjected to HPLC analysis at a random timing.

[2] = Degradability test: decomposition in deuterium oxide buffer solution, NMR measurement; format: physicochemical; conditions: pH 7.4; sodium phosphate deuterium oxide buffer solution, pD 7.4, 40° C.; β-alanine adduct amount by NMR; read-out: half-life (t½) (converted)
Experimental: Each of the compounds of Formulas (50), (51), (52) and (53) (20 mg) was dissolved in sodium phosphate deuterium oxide buffer solution (0.7 mL) having a pD of 7.4, and then placed in a thermostatic bath at 40° C., and NMR measurement was performed at a random timing. […] A half-life (t½) was calculated from a formula (in which ln represents a logarithm with the Napier's number as a base, and λ represents a product of an exponent of the Napier's number in an approximation formula of the graph and −1) based on the approximation formula.
Each of the compounds of Formulas (75), (76), (77) and (78) (20 mg) was dissolved in sodium phosphate deuterium oxide buffer solution (0.7 mL) having a pD of 7.4, and then placed in a thermostatic bath at 40° C., and NMR measurement was performed at a random timing.

Compound | change in amount of PEGylated insulin over time [1] | half-life at 28.6 mg/mL [2] [days]
PEG(20k)-OCO-NH-insulin: insulin reacted with SUNBRIGHT MENP-20T [reference compound] | no decrease | –
COCCOc1cccc(C2OCc3cc(COC(=O)NCCC(=O)O)ccc3O2)c1 (centres unmarked) [Formula (53)] | – | 231
